T1: recombinant human CD70 (Flag-TNC-CD70) (human, UniProt P32970 39-193)
T1 construct: extracellular domain; Captured by anti-Flag mAb in ELISA; as 'recombinant human CD70' immobilised on Biacore CM5 chips; TNC is for trimerisation; also called recombinant CD70; human recombinant CD70; not shown: Flag tag and TNC trimerisation domain
T1 sequence (looked up): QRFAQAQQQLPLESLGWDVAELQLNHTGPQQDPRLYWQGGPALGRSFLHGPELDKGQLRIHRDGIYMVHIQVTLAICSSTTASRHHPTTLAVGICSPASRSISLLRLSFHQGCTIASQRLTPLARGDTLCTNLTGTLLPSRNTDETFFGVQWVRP

T2: recombinant human CD27 Fc chimera (CD27-Fc) (human, UniProt P26842 21-192)
T2 construct: Bought reagent; also called recombinant CD27-Fc; Fc part of the bought chimera not given
T2 sequence (looked up): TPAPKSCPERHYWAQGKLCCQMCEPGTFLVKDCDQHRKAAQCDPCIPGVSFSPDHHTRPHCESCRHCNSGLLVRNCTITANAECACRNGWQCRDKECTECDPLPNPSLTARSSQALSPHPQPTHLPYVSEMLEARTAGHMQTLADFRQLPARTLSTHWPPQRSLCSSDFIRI


Key:
[1] = target: T3, rhesus recombinant CD70 (FLAG-TNC-rhesus CD70) (rhesus); assay: Biacore; rhesus recombinant CD70 on chip; Fab injected
T3 construct: also called rhesus Flag-TNC-CD70

[2] = target: T1, recombinant human CD70 (Flag-TNC-CD70); assay: Biacore; recombinant human CD70 on CM5 chip; Fab injected
Procedure: Off-rates of the purified llama-derived anti-CD70 blocking Fabs were determined using the Biacore. Recombinant human CD70 was immobilized on a CM5 Biacore chip. The immobilization was performed in accordance with a method provided by Biacore and by using the NHS/EDC kit (Biacore AB): after activation of the chip, a solution of 50 μg/ml of recombinant CD70 in 10 mM acetate buffer with pH of 5 was prepared and 1 μl of this solution (50ng) was injected resulting in a surface density of approximately 1000 RU.
Fabs for the CD70 mAbs ARGX-110, MDX2H5 and SGN70 were prepared by […] digestion (SGN70 and MDX69A7 are described elsewhere herein, MDX2H5, also referred to as MDX1411, is described in WO2008/074004 FIGS. 1A and 1B). Fabs, at a concentration of approximately 100-400 μg/ml, were diluted 6-fold in hepes-buffered saline (0.1M Hepes, 1.5M NaCl, 30 mM EDTA, 0.5% v/v surfactant P20). They were injected (30 μl) and passed through the flow cells at a flow rate of 30 μl/min. After binding of the Fab to CD70, the off-rate was monitored for a period of 10 minutes. After the dissociation, the flow cell surfaces were regenerated by injecting 5 μl of 10 mM NaOH. Sometimes multiple injections of NaOH were needed to regenerate the surfaces depending on the affinity of the Fabs. Off-rate analysis was done by applying the BIAevaluation software. First, the sensogram of the blank runs were subtracted from those obtained with the coated flow cell. […] Moreover, the off-rate of CD27 for CD70 was determined as well.

[3] = target: T1, recombinant human CD70 (Flag-TNC-CD70); assay: inhibition ELISA: Flag-TNC-CD70 captured by anti-Flag mAb, Fab titrated, remaining binding of CD27-Fc detected
Procedure: From selected phage transfected into TG1, individual colonies were picked randomly for growth in 96 well plates. After IPTG induction according to standard protocols periplasmic fractions (penis) containing Fabs were prepared. […] In this assay, Flag-TNC-CD70 is captured by an anti-Flag mAb and binding of CD27-Fc is detected via a biotinylated anti-CD27 mAb and strep-HRP in the absence or presence of CD70 Fabs (FIGS. 2 and 3) or CD70 mAbs (FIG. 4). In FIG. 2B it can be seen that 27B3, which has an identical VH as 9D1, but contains a somewhat different light chain, seems to block binding of CD27 to CD70 more efficiently, which was in line with the better off rate of this Fab as measured on Biacore (data not shown). Table 3 indicates the blocking potency (expressed as IC50) for the various llama-human chimeric mAbs tested in the CD70 inhibition ELISA. […] FIG. 3 is a composite of an experiment testing llama CD70 Fabs for blocking activity (in the inhibition ELISA, see white bars) and for CD70 binding (binding ELISA, black bars). For the binding ELISA, Flag-TNC-CD70 is captured by an anti-Flag mAb and binding of the Fabs is detected using an anti-myc-HRP mAb, which recognizes the MYC tag fused to the C-terminus of the Fd fragment. For comparison purposes, known monoclonal antibodies to CD70 (SGN70 described in US 2010/0129362 A1, clone 1F6; and MDX69A7 described in WO2008/074004 FIGS. 5A and 5B) were tested in parallel. […] Of interest is clone 59D10, which as Fab has no blocking activity, but when converted into a chimeric IgG was antagonistic (see Table 3). Amino acid sequences of the VH and VL domains of binding and blocking llama-derived Fab clones are shown elsewhere herein (Tables 6-9).

[4] = target: T2, recombinant human CD27 Fc chimera …; assay: ELISA; captured Flag-TNC-CD70

Binder	koff [1]	koff [2]	IC50 (read off the curve) [3]	binding result [4]
4D2 Fab (Fab, V domains shown, Llama-derived Fab) VH: QVQLQESGPGLVKPSQTLSLACTVSGGSITTSYYYWSWIRQPPGKGLEWMGAIGSRGSTYYSPSLKTRTSISRDTSKNQFTLQLSSVTPEDTAVYYCARVTGEITYNSGSYYYTLNLFDYWGQGTQVTVSS VL: QSVLTQPPSLSASPGSSVRLTCTLSSGNSVGNYDISWYQQKAGSPPRYLLYYYSDSYKNQGSGVPSRFSGSKDPSANAGLLLISGLQAEDEADYYCSVSNSGTYKPVFGGGSKLTVLG	0.00029 s⁻¹	0.00033 s⁻¹	~1 nM	
5F4 Fab (Fab, V domains shown, Llama-derived Fab) VH: EVQVQESGGGLVHPGGSLKLSCAASGFTFDTYAMSWVRQAPGKGLEWVSAISWSGGETFYAESMKGRFTISRNNAKNTLYLQMNSLKSEDTAVYYCARGMGLAEGLTDWGQGTQVTVSS VL: QAVVTHPPSLSASPGSSVRLTCTLISGDNIGGYDISWYQQKTGSPPRYLLYYYSDSYKHQSSGVPSRFSGSKDASANAGLLLISGLQSEDEADYYCSAYKSGSYKAPVFGGGTHLTVLG	0.0005 s⁻¹	8e-05 s⁻¹	~0.2 µg/mL	
9E1 Fab (Fab, V domains shown, Llama-derived Fab) VH: EVQLQESGGGVVQPGGSLRLSCAASGFTFDDYAMSWVRQAPGKGLEWVSSIYMYDSSTYYADSVKGRFTISTDNAKNTVYLQMNSLKSEDTAVYYCAKDINRSYGSSWSHFGPIFSSWGQGTQVTVSS VL: QAVVTQEPSLSVSPGGTVTLTCGLTSGSVTSSNYPDWYQQTPGQAPRLLIYNTNSRHSGVPSRFSGSISGNKAALTITGAQPEDEADYYCNLYMGSGGSKVFGGGTKLTVLG	0.0002 s⁻¹	0.00019 s⁻¹		
9D1 Fab (Fab, V domains shown, Llama-derived Fab) VH: EVQLVESGGGLVQPGGSLRLSCAASGFTFSVYYMNWVRQAPGKGLEWVSDINNEGGTTYYADSVKGRFTISRDNAKNTLTLQMNSLKPEDTALYYCVRDAGYSNHVPIFDSWGQGTQVIVAS VL: QAVVTQEPSLSVSPGGTVTLTCGLSSGSVTSSHYPGWYQQTPGQAPRLLIFNTNSRHSGVPSRFSGSISGNKAALTITGAQPEDEADYYCALLNIDDGSTMFGGGTHLTVLG	0.0002 s⁻¹	0.00048 s⁻¹	~0.2 µg/mL	
9B2 Fab (Fab, V domains shown, Llama-derived Fab) VH: QLQVVESGGGLMQPGGSLRLSCAASGFTFSGSAMSWVRQAPGKGLEWVSSIYSHSMYTYYADSVKSRFTISTDNAKNTLYLQMNSLKPDDTAVYYCAASSDYEGLFVSWGQGTQVTVSS VL: QAVLTQPPSLSASPGSSVRLTCTLNSANSVGSYDISWYQQKAGSPPRYLLYYYSDSLSHQGSGVPSRFSGSTDASANAGLLLISGLQPEDEADYYCSAYNRGSHVFGGGTKLTVLG	0.00061 s⁻¹	0.00028 s⁻¹	~4 nM	
9G2 Fab (Fab, V domains shown, Llama-derived Fab) VH: QVQLVESGGGLMQPGGSLRLSCAASGFTFSSSAMSWVRQAPGKGLEWVSSIYSDSSYTYYADSVKSRFTISTDNAKNTLYLQMNSLKPDDTAVYYCAGSSDYEGSFASWGQGTQVTVSS VL: QSVVTQPPSLSASPGSSVRLTCTLSSGNSVGNYDISWYQQKAGSPPRYLLYYYSDSVKHQGSGVPSRFSGSSDASANAGLLLISGLQPEDEADYYCSAYKSGSHVFGGGTKLTVLG	0.00018 s⁻¹	0.00018 s⁻¹	~2 nM	
1C2 Fab (Fab, V domains shown, Llama-derived Fab) VH: ELQVVESGGGLVQPGGSLRLSCAASGFTLSNYWMHWVRQAPRKGLEWVSTISTDNSRTYYADSVKGRFTISRDHAKNTLILQMNSLKSEDTAVYYCIRGSDYEHWGQGTQVTVSS VL: QTVVTQEPSLSVSPGGTVTLTCGLSSGSVTTTNYPGWFQQTPGQAPRTLIYSTSSRHSGVPSRFSGSISGNKAALTITGAQPEDEADYYCALEEIGSYTYMFGGGTHLTVLG	0.00032 s⁻¹			

Other lines, results leading:

koff [1]	koff [2]	IC50 (read off the curve) [3]	binding result [4]	Binder
4e-05 s⁻¹	0.0001 s⁻¹			57B6 Fab (Fab, V domains shown, Llama-derived Fab) VH: QLQLVESGGGLVQPGGSLRLSCAASGFSFSHYAMSWVRQAPGKGLEWVSGDNTYDGGTRYQDSVKGRFTISRDNGKNTLYLQMNSLKPEDTAVYYCAKDTGRGIMGEYGMDYWGKGTLVTVSS VL: QTVVTQEPSLSVSPGGTVTLTCGLKSGSVTSSNYPAWYQQTPGQAPRLLIYNTNSRHSGVPSRFSGSISGNKAALTITGAQPEDEADYYCALYMGSGSANAMFGGGTHLTVLG
			binds	human-mouse CD70 chimera chim-3 (Flag-TNC-CD70) (ligand, not shown: small tags and cut ends, also called chimera 3) HPEPHTAELQLNLTVPRKDPTLRWGAGPALGRSFTHGPELEEGHLRIHQDGLYRLHIQVTLANCSSPGSTLQHRATLAVGICSPASRSISLLRLSFHQGCTIASQRLTPLARGDTLCTNLTGTLLPSRNTDETFFGVQWVRP
	0.0001 s⁻¹	~0.04 µg/mL		24B6 Fab (Fab, V domains shown, Llama-derived Fab) VH: EVQLQESGGGVVQPGGSLRLSCAASGFTFDDYAMSWVRQAPGKGLEWVSSIYMYDSSTYYADSVKGRFTISTDNAKNTVYLQMNSLKSEDTAVYYCAKDINRSYGSSWSHFGPIFSSWGQGTQVTVSS VL: QPVLTQPSAVSVSLGQTARITCQGGYYTHWYQQKPGQAPVLVIYINNNRPSGIPERFSGSISGNTATLTISGAQVEDEADYYCQSGSSSTIPVFGGGTKLTVLG
			binds	human-mouse CD70 chimera chim-1 (Flag-TNC-CD70) (ligand, Soluble homotrimer held by the TNC domain; one CD70 ECD chain is given., also called chimera 1; not shown: N-terminal Flag tag, TNC (tenascin-C) trimerisation domain and any linkers of the Flag-TNC-CD70 construct) HPEPHTAELQLNLTVPRKDPTLRWGAGPALGRSFLHGPELDKGQLRIHRDGIYMVHIQVTLAICSSTTASRHHPTTLAVGICSPASRSISLLRLSFHQGCTIASQRLTPLARGDTLCTNLTGTLLPSRNTDETFFGVQWVRP
			binds	human-mouse CD70 chimera chim-2.4 (Flag-TNC-CD70) (ligand, not shown: small tags and cut ends, also called chimera 2.4) HPEPHTAELQLNLTVPRKDPTLRWGAGPALGRSFTHGPELEEGHLRIHQDGLYRLHIQVTLAICSSTTASRHHPTTLAVGICSPASRSISLLRLSFHQGCTIASQRLTPLARGDTLCTNLTGTLLPSRNTDETFFGVQWVRP
			binds	human-mouse CD70 chimera chim-2 (Flag-TNC-CD70) (ligand, not shown: small tags and cut ends, also called chimera 2) HPEPHTAELQLNLTVPRKDPTLRWGAGPALGRSFTHGPELEEGHLRIHQDGLYRLHIQVTLANCSSTTASRHHPTTLAVGICSPASRSISLLRLSFHQGCTIASQRLTPLARGDTLCTNLTGTLLPSRNTDETFFGVQWVRP
			binds	human-mouse CD70 chimera chim-2.2 (Flag-TNC-CD70) (ligand, also called chimera 2.2; not shown: N-terminal Flag tag, TNC trimerisation domain and any linkers of the Flag-TNC-CD70 construct) HPEPHTAELQLNLTVPRKDPTLRWGAGPALGRSFTHGPELEEGHLRIHRDGIYMVHIQVTLAICSSTTASRHHPTTLAVGICSPASRSISLLRLSFHQGCTIASQRLTPLARGDTLCTNLTGTLLPSRNTDETFFGVQWVRP
			binds	human-mouse CD70 chimera chim-2.1 (Flag-TNC-CD70) (ligand, Soluble homotrimer held by the TNC domain; one CD70 ECD chain is given., also called chimera 2.1; not shown: N-terminal Flag tag, TNC (tenascin-C) trimerisation domain and any linkers of the Flag-TNC-CD70 construct) HPEPHTAELQLNLTVPRKDPTLRWGAGPALGRSFTHGPELDKGQLRIHRDGIYMVHIQVTLAICSSTTASRHHPTTLAVGICSPASRSISLLRLSFHQGCTIASQRLTPLARGDTLCTNLTGTLLPSRNTDETFFGVQWVRP

From patent US20150266963A1 (ARGEN X B V, published 2015)
